According to patent publication US6287865:
Where a chain is given by its changes, count along the chain named.

B1: Cf-2.1 protein (polypeptide encoded by the tomato Cf-2.1 gene) (receptor)
chain: STEEATALLKWKATFKNQNNSFLASWIPSSNACKDWYGVVCFNGRVNTLNITNASVIGTLYAFPFSSLPSLENLDLSKNNIYGTIPPEIGNLTNLVYLDLNNNQISGTIPPQIGLLAKLQIIRIFHNQLNGFIPKEIGYLRSLTKLSLGINFLSGSIPASVGNLNNLSFLYLYNNQLSGSIPEEISYLRSLTELDLSDNALNGSIPASLGNMNNLSFLFLYGNQLSGSIPEEICYLRSLTYLDLSENALNGSIPASLGNLNNLSFLFLYGNQLSGSIPEEIGYLRSLNVLGLSENALNGSIPASLGNLKNLSRLNLVNNQLSGSIPASLGNLNNLSMLYLYNNQLSGSIPASLGNLNNLSMLYLYNNQLSGSIPASLGNLNNLSRLYLYNNQLSGSIPEEIGYLSSLTYLDLSNNSINGFIPASFGNMSNLAFLFLYENQLASSVPEEIGYLRSLNVLDLSENALNGSIPASFGNLNNLSRLNLVNNQLSGSIPEEIGYLRSLNVLDLSENALNGSIPASFGNLNNLSRLNLVNNQLSGSIPEEIGYLRSLNDLGLSENALNGSIPASLGNLNNLSMLYLYNNQLSGSIPEEIGYLSSLTYLSLGNNSLNGLIPASFANMRNLQALILNDNNLIGEIPSSVCNLTSLEVLYMPRNNLKGKVPQCLGNISNLQVLSMSSNSFSGELPSSISNLTSLQILDFGRNNLEGAIPQCFGNISSLEVFDMQNNKLSGTLPTNFSIGCSLISLNLHGNELEDEIPRSLDNCKKLQVLDLGDNQLNDTFPMWLGTLPELRVLRLTSNKLHGPIRSSRAEIMFPDLRIIDLSRNAFSQDLPTSLFEHLKGMRTVDKTMEEPSYESYYDDSVVVVTKGLELEIVRILSLYTVIDLSSNKFEGHIPSVLGDLIAIRILNVSHNALQGYIPSSLGSLSILESLDLSFNQLSGEIPQQLASLTFLEFLNLSHNYLQGCIPQGPQFRTFESNSYEGNDGLRGYPVSKGCGKDPVSEKNYTVSALEDQESNSEFFNDFWKAALMGYGSGLCIGISMIYILISTGNLRWLARIIEKLEHKIIMQRRKKQRGQRNYRRRNNHF
B2: Cf-2.2 protein (polypeptide encoded by the tomato Cf-2.2 gene) (receptor)
chain: B1 chain with A618G, M1041I, K1060E, H1085R

Biological target: Avr2 elicitor molecule of Cladosporium fulvum (Cladosporium fulvum)

Binder	resistance of progeny of resistant transformants to matched races of C. fulvum carrying or lacking Avr-2 (race 5,9 compared with race 2,5,9) [%]
B1	75
B2	75
